Reference: US11419921B2, “Methods of treating neurological disorders” (EnClear Therapies, Inc., priority 2018, dated 2022)

Assays:
(GR)10 [1] = assay: (GR)10 digestion with immobilized proteases (NHS-activated agarose resin) in PBS; format: biochemical; details: normalized
Protocol: (§1) Protease solutions were prepared at 2 mg/mL in sterile PBS with calcium, magnesium and 200 μL ([…]) were applied to 100 μL of pre-washed NHS-activated agarose resin in 0.8 mL centrifuge columns. Reactions were left 1.5 hour at room temperature with end-to-end mixing, after which resins were washed with 12 resin volumes of PBS. Unreacted sites were blocked with 500 μL of 1M ethanolamine for 15 minutes at room temperature and resins were further washed with 24 resin volumes. Resins were stored at 4 degrees in 500 μL of PBS containing 0.05% sodium azide as preservative.
110 μL of 50 μM (GR)10 dipeptide repeats prepared in PBS were added to each immobilized protease and incubated 5 minutes at room temperature with end-to-end mixing. Columns were spun down 1 minute at 1,000 Xg to recover digested GR dipeptides. Columns were washed with 110 μL of PBS to increase (GR)10 recovery. This procedure was repeated with 60 minutes digestion time. 100 μL of each samples were transferred to a new tube and 5 μL of 10% TFA followed by 300 μL of Dilution Solution were added. The reaction mixtures were analyzed by LC/MS to determine the concentration of GR repeats of different lengths.

(GR)10 [2] = assay: (GR)10 digestion with immobilized proteases in human cerebrospinal fluid (CSF); format: biochemical; details: immobilized enzyme
Protocol: as §1
200 μM of (GR)10 were diluted in human cerebrospinal fluid (CSF) and 400 μL were applied to each immobilized proteases. The reaction was incubated 5 minutes at room temperature with end-to-end mixing. Columns were spun down 1 minute at 1,000 Xg to recover digested GR dipeptides. Columns were washed with 12 resin volumes of PBS. The procedure was repeated with 60 minutes digestion time. 100 μL of each samples were transferred to a clean tube, flash-frozen and subsequently used for LC/MS quantification of GR repeats of different lengths. The remaining 300 μL of each samples were flash-frozen and used to assess neuron toxicity.
(GR)10 was digested with exemplary immobilized enzymes as described above in the subsection titled “(GR)10 digestion with immobilized proteases in CSF” of Example 3. Clostripain experiments were conducted with and without DTT activation (no DTT during digestion). The results obtained after 5 and 60 minutes of reaction time are presented in Table 25 and shown in FIG. 5 (commercial and in-house immobilized trypsin), FIG. 6 (immobilized elastase, FIG. 7A (immobilized clostripain without DTT) and FIG. 7 (immobilized clostripain with 2.5 mM DTT).

[3] = resin wash from 60 min reaction

B1: Commercial Trypsin: commercial immobilized trypsin, presumably the ThermoFisher immobilized TPCK-trypsin of Example 2 (protein, UniProt P00760 24-246, looked up)
Serine protease 1: IVGGYTCGANTVPYQVSLNSGYHFCGGSLINSQWVVSAAHCYKSGIQVRLGEDNINVVEGNEQFISASKSIVHPSYNSNTLNNDIMLIKLKSAASLNSRVASISLPTSCASAGTQCLISGWGNTKSSGTSYPDVLKCLKAPILSDSSCKSAYPGQITSNMFCAGYLEGGKDSCQGDSGGPVVCSGKLQGIVSWGSGCAQKNKPGVYTKVCNYVSWIKQTIASN
modifications: TPCK-treated, immobilized on agarose resin
131.9 µM: (GR)1 ((GR)10 [1]; resin wash from 5 min reaction)
308.6 µM: (GR)1 ((GR)10 [1]; immobilized - 60 min reaction)
1117.3 µM: (GR)1 (normalized uM) ((GR)10 [2]; 5 min reaction)
0.0 µM: (GR)2 ((GR)10 [1]; Immobilized - 5 min reaction) | (GR)3 ((GR)10 [1]; Immobilized - 5 min reaction) | (GR)4 ((GR)10 [1]; Immobilized - 5 min reaction) | (GR)5 ((GR)10 [1]; Immobilized - 5 min reaction) | (GR)6 ((GR)10 [1]; Immobilized - 5 min reaction) | (GR)8 ((GR)10 [1]; Immobilized - 5 min reaction) | (GR)10 ((GR)10 [1]; Immobilized - 5 min reaction) | (GR)2 ((GR)10 [1]; immobilized - 60 min reaction) | (GR)3 ((GR)10 [1]; immobilized - 60 min reaction) | (GR)4 ((GR)10 [1]; immobilized - 60 min reaction) | (GR)5 ((GR)10 [1]; immobilized - 60 min reaction) | (GR)6 ((GR)10 [1]; immobilized - 60 min reaction) | (GR)8 ((GR)10 [1]; immobilized - 60 min reaction) | (GR)10 ((GR)10 [1]; immobilized - 60 min reaction) | (GR)2 ((GR)10 [1]; resin wash from 5 min reaction) | (GR)3 ((GR)10 [1]; resin wash from 5 min reaction) | (GR)4 ((GR)10 [1]; resin wash from 5 min reaction) | (GR)5 ((GR)10 [1]; resin wash from 5 min reaction) | (GR)6 ((GR)10 [1]; resin wash from 5 min reaction) | (GR)8 ((GR)10 [1]; resin wash from 5 min reaction) | (GR)10 ((GR)10 [1]; resin wash from 5 min reaction) | (GR)2 ((GR)10 [1]; [3]) | (GR)3 ((GR)10 [1]; [3]) | (GR)4 ((GR)10 [1]; [3]) | (GR)5 ((GR)10 [1]; [3]) | (GR)6 ((GR)10 [1]; [3]) | (GR)8 ((GR)10 [1]; [3]) | (GR)10 ((GR)10 [1]; [3]) | (GR)2 (normalized uM) ((GR)10 [2]; 5 min reaction) | (GR)3 (normalized uM) ((GR)10 [2]; 5 min reaction) | (GR)4 (normalized uM) ((GR)10 [2]; 5 min reaction) | (GR)5 (normalized uM) ((GR)10 [2]; 5 min reaction) | (GR)6 (normalized uM) ((GR)10 [2]; 5 min reaction) | (GR)8 (normalized uM) ((GR)10 [2]; 5 min reaction) | (GR)10 (normalized uM) ((GR)10 [2]; 5 min reaction) | (GR)2 (normalized uM) ((GR)10 [2]; 60 min reaction) | (GR)3 (normalized uM) ((GR)10 [2]; 60 min reaction) | (GR)4 (normalized uM) ((GR)10 [2]; 60 min reaction) | (GR)5 (normalized uM) ((GR)10 [2]; 60 min reaction) | (GR)6 (normalized uM) ((GR)10 [2]; 60 min reaction) | (GR)8 (normalized uM) ((GR)10 [2]; 60 min reaction) | (GR)10 (normalized uM) ((GR)10 [2]; 60 min reaction)
145.7 µM: (GR)1 ((GR)10 [1]; [3])
301.2 µM: (GR)1 ((GR)10 [1]; Immobilized - 5 min reaction)
1197.4 µM: (GR)1 (normalized uM) ((GR)10 [2]; 60 min reaction)
